Experimental data taken from US20260125469A1 (Hoffmann-La Roche, published 2026).

Legend:
[1] = target: T1, Human CD3ε stalk-Fc(knob)-Avi/CD3δ stalk-Fc(hole) (human); assay: SPR on immobilized human CD3ε/δ after stress, relative to sample kept at -80°C pH 6
T1 construct: Heterodimer of CD3 delta and CD3 epsilon ectodomains fused to human Fc with knob-into-hole; also called human CD3ε/δ; CD3 antigen
Method: All SPR experiments were performed on a Biacore T200 instrument (GE Healthcare) at 25° C. with HBS-P+ (10 mM HEPES, 150 mM NaCl pH 7.4, 0.05% Surfactant P20) as running and dilution buffer. Biotinylated human CD3ε/δ (see Example 3, SEQ ID NOs 41 and 42) as well as biotinylated anti-huIgG (Capture Select, Thermo Scientific, #7103262100) were immobilized on a Series S Sensor Chip SA (GE Healthcare, #29104992), resulting in surface densities of at least 1000 resonance units (RU). Anti-CD3 antibodies with a concentration of 2 μg/ml were injected for 30 s at a flow rate of 5 μl/min, and dissociation was monitored for 120 s. The surface was regenerated by injecting 10 mM glycine pH 1.5 for 60 s. Bulk refractive index differences were corrected by subtracting blank injections and by subtracting the response obtained from a blank control flow cell. For evaluation, the binding response 5 seconds after injection end was taken. To normalize the binding signal, the CD3 binding was divided by the anti-huIgG response (the signal (RU) obtained upon capture of the CD3 antibody on the immobilized anti-huIgG antibody). The relative binding activity was calculated by referencing each temperature stressed sample to the corresponding, non-stressed sample.
The experiment was performed as described in Example 4, using the monovalent IgG molecules prepared in Example 19.

[2] = target: T2, Cynomolgus CD3ε stalk-Fc(knob)-Avi/CD3δ stalk-Fc(hole) (cynomolgus); assay: SPR, monovalent IgG captured by anti-PG antibody, antigen as analyte, 25°C; bad fit quality per footnote
T2 construct: also called cynomolgus CD3ε/δ
Method: (§1) SPR experiments were performed as described in Example 3, with the monovalent IgG molecules prepared in Example 19.
(§2) To analyze the interaction to CD3, IgG molecules were captured for 240 s at 50 nM with a flow rate of 5 μl/min. Human and cynomolgus CD3F stalk-Fc(knob)-Avi/CD36-stalk-Fc(hole) were passed at a concentration of 0.061-250 nM with a flow rate of […] through the flow cells for 300 s. The dissociation was monitored for 800 s.

[3] = target: T1, Human CD3ε stalk-Fc(knob)-Avi/CD3δ …; assay: as above
Method: as §1, §2

[4] = target: T3, human CD19 on cells (Nalm-6, Z-138) (human, UniProt P15391 20-556); assay: flow cytometry on Nalm-6 cells
T3 construct: whole, on cells; also called CD19-expressing cells; CD19+ target cells
T3 sequence (looked up): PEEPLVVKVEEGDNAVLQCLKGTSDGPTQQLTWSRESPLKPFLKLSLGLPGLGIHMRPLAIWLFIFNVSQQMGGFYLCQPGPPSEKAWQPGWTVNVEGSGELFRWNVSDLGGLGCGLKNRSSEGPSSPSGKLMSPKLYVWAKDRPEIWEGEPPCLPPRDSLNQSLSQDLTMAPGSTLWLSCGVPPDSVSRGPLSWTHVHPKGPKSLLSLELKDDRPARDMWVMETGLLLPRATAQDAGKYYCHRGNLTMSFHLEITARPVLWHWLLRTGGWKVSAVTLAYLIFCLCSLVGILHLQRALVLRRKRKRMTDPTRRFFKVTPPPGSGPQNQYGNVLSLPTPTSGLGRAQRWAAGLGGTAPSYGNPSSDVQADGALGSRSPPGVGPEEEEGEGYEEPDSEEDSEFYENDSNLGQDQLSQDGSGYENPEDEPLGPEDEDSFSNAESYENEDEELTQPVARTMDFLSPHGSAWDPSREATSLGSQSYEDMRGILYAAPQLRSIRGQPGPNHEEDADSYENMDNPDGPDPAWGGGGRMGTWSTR
Method: (§3) The binding of the CD19-TCB molecules prepared in Example 15 to human CD19- and CD3-expressing target cells was tested. Two CD19-expressing cell lines with different levels of CD19 expression were used. Nalm-6, an acute lymphoblastic leukemia (ALL) cell line with high CD 19 expression and Z-138 (Mantle cell lymphoma) with average expression levels. CD3-binding was assessed using immortalized T lymphocyte line (Jurkat cell line). Briefly, cells were harvested, counted, checked for viability and resuspended at 1×10⁶ cells/ml in FACS buffer (PBS+2% FCS+5 mM EDTA+0.25% sodium azide). […] Binding curves and the EC50 values related to binding were calculated using GraphPad Prism 7.

[5] = target: T3, human CD19 on cells (Nalm-6, Z-138); assay: cell-based or functional assay
[6] = target: T4, human CD3 on cells (CD3ε) (human, UniProt P07766 23-207); assay: flow cytometry on Jurkat cells
T4 construct: CD3 complex as it stands on Jurkat cells or primary T cells; also called CD3-expressing Jurkat cells; CD3-expressing T cells
T4 sequence (P07766 23-207 limits assumed): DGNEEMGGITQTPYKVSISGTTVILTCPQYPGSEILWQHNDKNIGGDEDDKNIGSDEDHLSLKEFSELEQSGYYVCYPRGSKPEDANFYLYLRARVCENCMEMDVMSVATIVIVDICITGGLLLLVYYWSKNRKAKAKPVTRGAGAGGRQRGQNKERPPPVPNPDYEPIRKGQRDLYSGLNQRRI
Method: as §3

[7] = target: T1, Human CD3ε stalk-Fc(knob)-Avi/CD3δ …; assay: SPR, TCB captured by anti-PG antibody, human CD3ε/δ-Fc as analyte, 25°C
Method: (§4) SPR experiments were performed, using the CD19-TCB molecules prepared in Example 15, on a Biacore T200 instrument at 25° C. with HBS-EP+ as running buffer (0.01 M HEPES pH 7.4, 0.15 M NaCl, 0.005% Surfactant P20 (GE Healthcare, #BR-1006-69)). Anti-PG antibody (see Example 3) was directly immobilized by amine coupling on a C1 chip (GE Healthcare). The different TCB molecules were captured at 25 nM. Three-fold dilution series (in HBS-EP from 0.14 to 100 nM) of the CD19 antigen (CD19 extracellular domain (ECD)-Fc fusion; see SEQ ID NOs 99 and 100) or the CD3 antigen (see Example 3, SEQ ID NOs 41 and 42) were passed over the ligand at 30 μl/min for 240 s to record the association phase. The dissociation phase was monitored for 1500 s (CD19 antigen) or 800 s (CD3 antigen)s and triggered by switching from the sample solution to HBS-EP+. The chip surface was regenerated after every cycle using two injections of 10 mM glycine pH 2.1 for 60 sec. Bulk refractive index differences were corrected for by subtracting the response obtained on the reference flow cell (without captured TCB). The affinity constants were derived from the kinetic rate constants by fitting to a 1:1 Langmuir binding using the Biaeval software (GE Healthcare). The measurement was performed with three independent dilution series.

[8] = target: T5, CD19 extracellular domain (ECD)-Fc fusion (human, UniProt P01857 104-328 = IgG part); assay: SPR, TCB captured by anti-PG antibody, CD19 ECD-Fc as analyte, 25°C
T5 construct: Monovalent CD19 ECD on a knob-into-hole Fc; also called CD19 antigen; recombinant human CD19
Method: as §4

Row | Binder | EC50 [4] [nM] | EC50 (pM) of tumor cell lysis, Nalm-6 target cells [5] [pM] | EC50 (pM) of tumor cell lysis, Z-138 target cells [5] [pM] | EC50 [6] [nM] | Kd [7] [nM] | koff [7] [s⁻¹] | kon [7] [M⁻¹ s⁻¹] | t1/2 [7] [min] | Kd [8] [nM] | koff [8] [s⁻¹] | kon [8] [M⁻¹ s⁻¹] | t1/2 [8] [min] | other results
1 | anti-CD3 antibody clone P004.042 in monovalent IgG format (antibody, also called monovalent IgG P004.042) heavy: not shown DKTHTCPPCPAPEAAGGPSVFLFPPKPKDTLMISRTPEVTCVVVDVSHEDPEVKFNWYVDGVEVHNAKTKPREEQYNSTYRVVSVLTVLHQDWLNGKEYKCKVSNKALGAPIEKTISKAKGQPREPQVCTLPPSRDELTKNQVSLSCAVKGFYPSDIAVEWESNGQPENNYKTTPPVLDSDGSFFLVSKLTVDKSRWQQGNVFSCSVMHEALHNHYTQKSLSLSP light: EVQLLESGGGLVQPGGSLRLSCAASGFQFDNYAMNWVRQAPGKGLEWVSRIRTKYNEYATYYADSVKGRFTISRDDSKNTLYLQMNSLRAEDTAVYYCVRASNFPQSYVSYFGYWGQGTLVTVSSASVAAPSVFIFPPSDEQLKSGTASVVCLLNNFYPREAKVQWKVDNALQSGNSQESVTEQDSKDSTYSLSSTLTLSKADYEKHKVYACEVTHQGLSSPVTKSFNRGEC |  |  |  |  |  |  |  |  |  |  |  |  | binding activity [%] after 2 weeks at pH 6.0/40°C [1]: 101%; binding activity [%] after 2 weeks at pH 7.4/37°C [1]: 98%; Kd [2]: 0.439 nM; koff [2]: 0.00809 s⁻¹; kon [2]: 1.85e+07 M⁻¹ s⁻¹; t1/2 [2]: 1.43 min; Kd [3]: 1.36 nM; koff [3]: 0.00852 s⁻¹; kon [3]: 6.28e+06 M⁻¹ s⁻¹; t1/2 [3]: 1.36 min
2 | CD19-TCB, CD19(2B11) CD3orig (bispecific antibody, human IgG1, kappa, L234A L235A, 2+1 IgG CrossFab, inverted; human IgG1 Fc, knob-into-hole, PGLALA) heavy 1: not shown heavy 2: QVQLVQSGAEVKKPGASVKVSCKASGYTFTDYIMHWVRQAPGQGLEWMGYINPYNDGSKYTEKFQGRVTMTSDTSISTAYMELSRLRSDDTAVYYCARGTYYYGPQLFDYWGQGTTVTVSSASTKGPSVFPLAPSSKSTSGGTAALGCLVEDYFPEPVTVSWNSGALTSGVHTFPAVLQSSGLYSLSSVVTVPSSSLGTQTYICNVNHKPSNTKVDEKVEPKSCDKTHTCPPCPAPEAAGGPSVFLFPPKPKDTLMISRTPEVTCVVVDVSHEDPEVKFNWYVDGVEVHNAKTKPREEQYNSTYRVVSVLTVLHQDWLNGKEYKCKVSNKALGAPIEKTISKAKGQPREPQVCTLPPSRDELTKNQVSLSCAVKGFYPSDIAVEWESNGQPENNYKTTPPVLDSDGSFFLVSKLTVDKSRWQQGNVFSCSVMHEALHNHYTQKSLSLSP light 1: DIVMTQTPLSLSVTPGQPASISCKSSQSLETSTGTTYLNWYLQKPGQSPQLLIYRVSKRFSGVPDRFSGSGSGTDFTLKISRVEAEDVGVYYCLQLLEDPYTFGQGTKLEIKRTVAAPSVFIFPPSDRKLKSGTASVVCLLNNFYPREAKVQWKVDNALQSGNSQESVTEQDSKDSTYSLSSTLTLSKADYEKHKVYACEVTHQGLSSPVTKSFNRGEC light 2: EVQLLESGGGLVQPGGSLRLSCAASGFTFSTYAMNWVRQAPGKGLEWVSRIRSKYNNYATYYADSVKGRFTISRDDSKNTLYLQMNSLRAEDTAVYYCVRHGNFGNSYVSWFAYWGQGTLVTVSSASVAAPSVFIFPPSDEQLKSGTASVVCLLNNFYPREAKVQWKVDNALQSGNSQESVTEQDSKDSTYSLSSTLTLSKADYEKHKVYACEVTHQGLSSPVTKSFNRGEC | 0.7 | 0.3 | 4.8 | 203 | 3.36 | 0.00378 | 1.13e+06 | 3.1 | 0.4 | 0.000176 | 434000 | 65.6 | 
3 | CD19-TCB, CD19(018) CD3 variant P035.093 (bispecific antibody, human IgG1, kappa, L234A L235A, 2+1 IgG CrossFab, inverted; human IgG1 Fc, knob-into-hole, PGLALA) heavy 1: not shown heavy 2: QVQLVQSGAEVKKPGASVKVSCKASGYTFTDYIMHWVRQAPGQGLEWMGYINPYNDGSKYTEKFQGRVTMTSDTSISTAYMELSRLRSDDTAVYYCARGTYYYGSALFDYWGQGTTVTVSSASTKGPSVFPLAPSSKSTSGGTAALGCLVEDYFPEPVTVSWNSGALTSGVHTFPAVLQSSGLYSLSSVVTVPSSSLGTQTYICNVNHKPSNTKVDEKVEPKSCDKTHTCPPCPAPEAAGGPSVFLFPPKPKDTLMISRTPEVTCVVVDVSHEDPEVKFNWYVDGVEVHNAKTKPREEQYNSTYRVVSVLTVLHQDWLNGKEYKCKVSNKALGAPIEKTISKAKGQPREPQVCTLPPSRDELTKNQVSLSCAVKGFYPSDIAVEWESNGQPENNYKTTPPVLDSDGSFFLVSKLTVDKSRWQQGNVFSCSVMHEALHNHYTQKSLSLSP light 1: DIVMTQTPLSLSVTPGQPASISCKSSQSLENPNGNTYLNWYLQKPGQSPQLLIYRVSKRFSGVPDRFSGSGSGTDFTLKISRVEAEDVGVYYCLQLTHVPYTFGQGTKLEIKRTVAAPSVFIFPPSDRKLKSGTASVVCLLNNFYPREAKVQWKVDNALQSGNSQESVTEQDSKDSTYSLSSTLTLSKADYEKHKVYACEVTHQGLSSPVTKSFNRGEC light 2: EVQLLESGGGLVQPGGSLRLSCAASGFTFSSYAMNWVRQAPGKGLEWVSRIRSKYNNYATYYADSVKGRFTISRDDSKNTLYLQMNSLRAEDTAVYYCVRASNFPASYVSYFAYWGQGTLVTVSSASVAAPSVFIFPPSDEQLKSGTASVVCLLNNFYPREAKVQWKVDNALQSGNSQESVTEQDSKDSTYSLSSTLTLSKADYEKHKVYACEVTHQGLSSPVTKSFNRGEC | 1.2 | 0.9 | 8.1 | 38 | 0.37 | 0.00135 | 3.68e+06 | 8.6 | 1.27 | 0.000392 | 310000 | 29.5 | 
